# Experimental data published in patent US20260125428A1, “SYNTHETIC TRIPLEX PEPTIDE NUCLEIC ACID-BASED INHIBITORS FOR CANCER THERAPY” (University of Connecticut, priority 2022, published 2026).
# Columns and labels:
# [1] = Biodistribution in U2932 xenograft mice (IVIS, confocal); format: in vivo
# Procedure: FIGS. 5A-D show results of in vivo administration of indicated PNAs. (5A) IVIS® images of xenograft mice bearing tumors at indicated time points after systemic administration of PNA-TAMRA and γPNA7-NLS at 5 mg/kg. (5B) IVIS® imaging of organs harvested from xenograft mice treated with PNA-TAMRA and γPNA7-NLS after 6 h of systemic administration. (5C) Quantification of fluorescence from the organs harvested from PNA-TAMRA and γPNA7-NLS treated xenograft mice. (5D) Confocal microscopy images of tumor and kidney tissue cryo-sections from PNA-TAMRA and γPNA7-NLS treated U2932 xenograft mice. Scale bar, 30 μm.
# FIGS. 6A-C show effect of systemic administration of indicated PNAs. (6A) IVIS® images of xenograft mice bearing tumors at indicated time points after systemic administration of γPNA7-NLS and γPNA6 at 5 mg/kg. (6B) IVIS® imaging of organs harvested from control, γPNA7-NLS, and γPNA6 treated mice after 24 hours of systemic administration. (6C) Confocal imaging of tumor, liver, and kidney sections obtained from xenograft mice after 24 h of treatment with γPNA7-NLS and γPNA6. Scale bar is 30 μm.
# In vivo studies in xenograft mice model: U2932 derived xenografts were generated by implanting 10 million cells subcutaneously on the lower right flank of the female NSG mice (NOD.Cg-Prkdc^scidIl2rg^tm1Wj1/SzJ, #005557, Jackson Laboratories, USA) of 5-6 weeks. The mice were maintained in the animal care facility at the University of Connecticut following the required Institutional Animal Care and Use Committee guidelines (IACUC). Mice developed palpable tumors after 3-4 weeks of implantation. Tumor dimensions including length (l), breadth (b), and height (h) were measured using a caliper and volume was calculated using the formula for ellipsoid (0.5236×lbh).
# Biodistribution studies: Mice with 600-800 mm^3 tumor volume were used for the biodistribution studies. γPNA7-NLS, γPNA6 and regular PNA-TAMRA (23 mer with 3 arginine residues) was injected systemically (retro-orbital) at 5 mg/kg dose. Live imaging of animals was performed using in vivo imaging (IVIS®) spectrum CT and epifluorescence was recorded at excitation/emission wavelength of 549/578 nm at 0, 0.25, 1, 2, 4, 6, 8 and 24 h. Mice were euthanized after 6 h and 24 h. Organs were collected and imaged via IVIS® to determine organ localization of PNA. Further organs were frozen in optimum cutting temperature media (OCT) at −80° C. The tumor, liver, and kidney from treated and untreated mice were sectioned using a cryostat to obtain 10 μm tissue sections. The sections were washed in PBS followed by fixation in 10% neutral buffered formalin. After washing with PBS, sections were permeabilized using 0.2% Triton™-X. The nucleus was stained using mounting media with DAPI (Invitrogen, USA). Sections were allowed to harden overnight, and images were taken using 60× oil lens on a Nikon AIR confocal microscope.
# HeLa cells = assay: Cellular uptake in HeLa cells (confocal microscopy); format: cell-based; conditions: 24 h, live cells
# Procedure: (§1) FIGS. 3A-C show cellular uptake of indicated PNAs. (3A) A confocal image of HeLa cells showing cellular and nuclear uptake of γPNA7-NLS containing TAMRA at 2 μM dose and after 24 h of treatment. (3B) A confocal image of U2932 cells showing cellular and nuclear uptake of γPNA7-NLS containing tetramethylrhodamine (TAMRA) at 2 μM dose and after 24 h of treatment. (3C) A histogram representing flow cytometry results for cellular uptake of γPNA7-NLS in U2932 cells after incubation at different doses for 24 h. The scale bar represents 10 μm.
# (§2) Cellular uptake: HeLa and U2932 cells were purchased from ATCC (USA), cultured in EMEM and RPMI media, respectively (Invitrogen, USA), supplemented with […] and 1% Penstrep at 37° C. and 5% CO2.
# (§3) Confocal Microscopy: HeLa cells were seeded in 8 chamber slides at 50,000 cells/well. U2932 cells were seeded in 24 well plate at 100,000 cells per well. γPNA7-NLS containing TAMRA was added to the cells at 2 μM concentration. After 24 h, cells were washed with PBS to remove uninternalized PNA. The nucleus of live cells was stained using Hoechst dye and were visualized under confocal microscope (Nikon AIR, USA) while cells are maintained in CO2 independent media. […] Cells were then suspended in PBS and analyzed using LSR Fortessa X-20 cell analyzer (BD Biosciences, USA). The data was analyzed using Flowjo software.
# [2] = Biodistribution in transgenic Ep-myc mice (IVIS, confocal); format: in vivo; conditions: 24 hours
# Procedure: FIGS. 8A-D show organ distribution after intravenous and subcutaneous administration of indicated PNAs. (8A) The organ distribution of γPNA-NLS TAMRA after intravenous (IV) and subcutaneous (SC) administration in transgenic mice model of B-cell lymphoma (Ep-myc). γPNA-NLS TAMRA was administered at 5 mg/kg via IV and SC route and organ distribution was determined via IVIS imaging after 24 h. (8B) Confocal microscopy images of different lymph nodes (LNs) after IV and SC injection of γPNA-NLS TAMRA. Blue indicates DAPI and red indicated TAMRA. Scale bar, 30 μm. (8C) C-myc protein levels in brachial lymph nodes of γPNA5-NLS treated mice in comparison to the control (untreated mice). N=4 mice per group. (8D) C-myc protein levels in axillary lymph nodes of γPNA5-NLS treated mice in comparison to the control (untreated mice). N=4 mice per group. Transgenic or Ep-myc mice were treated with γPNA5-NLS at 60 mg/kg dose over 2 days and mice were euthanized on day 3 for analysis.
# In vivo studies in transgenic mice model: Ep-myc mice model of Burkitt lymphoma (B6.Cg-Tg(IgHMyc)22Bri/J, #002728, Jackson laboratories) which overexpresses c-myc was also used to test the efficacy of the designed PNA-NLS.
# Biodistribution study: γPNA7-NLS containing TAMRA was administered via retro-orbital and subcutaneous route at 5 mg/kg dose in mice with visibly enlarged lymph nodes (cervical, brachial, axillary, and inguinal). Mice were euthanized after 24 h and organs were collected followed by imaging via IVIS®. All major organs and enlarged lymph nodes were collected and frozen in OCT media. The lymph nodes and organs were sectioned at 10 μm thickness using cryostat. The sections were then fixed, permeabilized and nucleus was stained with DAPI. The localization of PNA in lymph nodes was studied via confocal microscopy. Images were taken using 60× oil lens on a AIR confocal microscope.
# U2932 cells = assay: Cellular uptake in U2932 cells (confocal microscopy, flow cytometry); format: cell-based; conditions: 24 h
# Procedure: as §1, §2, §3
# [3] = organs harvested after 6 h, 5 mg/kg
# [4] = xenograft mice, 5 mg/kg systemic, imaged up to 24 h
substance,measurement,setting,value
"X3TCCCTCCCTCCGTTCTTTTTTCCCX7 (gamma PNA; NLS peptide; C-terminal TAMRA; gammaPNA to target; misc_feature 1 JJJTJJJT-linker- is covalently linked to the backbone, wherein J is pseudoisocytosine and the linker is 11-Amino-3,6,9-Trioxaundecanoic Acid (DCHA), represented as -OOO-; misc_feature 24 -K-linker-SEQ ID NO: 5-linker-label is covalently linked to the backbone, wherein the linker is 11-Amino-3,6,9-Trioxaundecanoic Acid (DCHA), represented as -OOO-, and the label i) [γPNA7-NLS]",accumulation in tumor (confocal microscopy of cryo-sections),"[1]; 6 h, 5 mg/kg",superior accumulation
same,TAMRA intensity from harvested tumors (IVIS),"[1]; 6 h after systemic administration, 5 mg/kg",significant TAMRA intensity
same,accumulation in tumors in comparison to γPNA6 (confocal imaging),"[1]; 24 h, 5 mg/kg",significantly higher accumulation in tumors
same,fluorescence signal of harvested tumors in comparison to γPNA6 (IVIS),"[1]; 24 h after systemic administration, 5 mg/kg",higher fluorescence signal
same,"accumulation in tumor in comparison to liver, kidney, and intestine",[1]; [3],higher in comparison to the other organs
same,accumulation in tumors in comparison to PNA-TAMRA (quantified fluorescence),[1]; [3],more than 6 fold
same,tumor accumulation until (live IVIS imaging),"[1]; xenograft mice, 5 mg/kg retro-orbital, imaged up to 6 h",6 h
same,retained within the tumors until (live IVIS imaging),[1]; [4],24 h
same,significant accumulation in tumors starting from (live IVIS imaging),[1]; [4],0.25 h
same,"cellular uptake, cytoplasm (confocal)",HeLa cells,significant accumulation of γPNA7-NLS in the cytoplasm
same,"nuclear uptake (confocal, TAMRA overlap with Hoechst)",HeLa cells,accumulation of γPNA7-NLS within the nucleus
same,accumulation in lymph nodes after IV administration (confocal),[2]; 5 mg/kg IV,minimal accumulation in the lymph nodes
same,accumulation in lymph nodes after SC administration (confocal),[2]; 5 mg/kg SC,accumulated significantly in multiple lymph nodes
same,"accumulation in lymph nodes, SC route in comparison to IV route (IVIS)",[2]; 5 mg/kg,significantly higher accumulation
same,cellular and nuclear uptake (confocal),U2932 cells,accumulation of γPNA7-NLS in both the nucleus and cytoplasm
same,cellular uptake by flow cytometry,U2932 cells; different doses,dose dependent increase in cellular uptake
